Experimental data: the supplement of paper PMC6755084

The sequences below were run on F1*sub RNA substrate (template-directed ligation) (assay: fraction ligated after 30 min (ligated reads / total reads); higher = more ligase activity; sequences stand for … in GAGACCGCAACTGAAAAGTTGT…AGTTCTGCACGTAGAAGCAAAAGGC). Settings: 42 °C.
Procedure, shortened: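 Oligo-pool templates underwent PCR amplification, T7 transcription and gel purification to yield ribozyme variants. Gel-separated ligated and unligated bands were converted to complementary DNA with barcoded primers and sequenced on a MiSeq, keeping core bases of quality ≥20. The ratio of ligated reads to total reads gave the fraction ligated for every variant.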
“TATCCTTGTCTAAGACACTTTGGATGGTTGA [3d1026]” was tested, and the fraction ligated was 0.047. “TATCCTTGTCTAAGACACTTTGGTGGGTTGA [3d1024]” showed a fraction ligated of 0.19. “TATCCTTGTCTAAGACATTTGGATGGGTTGA [3d1021]” was tested, and the fraction ligated was 0.793. “TATCCTTGTCTAAGACCTTTGGATGGGTTGA [3d1020]” was tested, and the fraction ligated was 0.786. “TATCCTTGTCTAAGCACTTTGGATGGGTTGA [3d1018]” was tested, and the fraction ligated was 0.765. For “TATCCTTGTCTAGACACTTTGGATGGGTTGA [3d1016]”, the fraction ligated was 0.763. For “TATCCTTGTGAAGACACTTTGGATGGGTTGA [3d1001]”, the fraction ligated was 0.792. In the case of “TATCCTTGTGTAAACACTTTGGATGGGTTGA [3d1003]”, the fraction ligated is reported as 0.8. “TATCCTTGTGTAAGAACTTTGGATGGGTTGA [3d1005]” gave a fraction ligated of 0.818. “TATCCTTGTGTAAGACACTTGGATGGGTTGA [3d1008]” was tested, and the fraction ligated was 0.367. With “TATCCTTGTGTAAGACACTTTGATGGGTTGA [3d1009]” the fraction ligated was 0.799. Sequence “TATCCTTGTGTAAGACACTTTGGAGGGTTGA [3d1011]” has a fraction ligated of 0.0114. “TATCCTTGTGTAAGACACTTTGGATGGGTTA [3d1013]” showed a fraction ligated of 0.406. “TATCCTTGTGTAAGACACTTTGGATGGGTTG [3d1014]” was tested, and the fraction ligated was 0.745. TATCCTTGTGTAAGACACTTTGGATGGGTTGA [2d93] was tested, and the fraction ligated was 0.792. For “TATCCTTGTGTAAGACACTTTGGATGGTTGA [3d1012]”, the fraction ligated was 0.0285. With “TATCCTTGTGTAAGACACTTTGGTGGGTTGA [3d1010]” the fraction ligated was 0.062. For “TATCCTTGTGTAAGACATTTGGATGGGTTGA [3d1007]”, the fraction ligated was 0.796. Sequence “TATCCTTGTGTAAGACCTTTGGATGGGTTGA [3d1006]” has a fraction ligated of 0.801. In the case of “TATCCTTGTGTAAGCACTTTGGATGGGTTGA [3d1004]”, the fraction ligated is reported as 0.788. With “TATCCTTGTGTAGACACTTTGGATGGGTTGA [3d1002]” the fraction ligated was 0.808. “TATCCTTGTTAAGACACTTTGGATGGGTTGA [3d1000]” gave a fraction ligated of 0.793. TATCCTTTCGAAGACACTTTGGATGGGTTGA [3d970] gave a fraction ligated of 0.8. For TATCCTTTCGTAAACACTTTGGATGGGTTGA [3d972], the fraction ligated was 0.795. Sequence TATCCTTTCGTAAGAACTTTGGATGGGTTGA [3d974] has a fraction ligated of 0.797. TATCCTTTCGTAAGACACTTGGATGGGTTGA [3d977] was tested, and the fraction ligated was 0.76. Work on TATCCTTTCGTAAGACACTTTGATGGGTTGA [3d978] yielded a fraction ligated of 0.77. TATCCTTTCGTAAGACACTTTGGAGGGTTGA [3d980] gave a fraction ligated of 0.0203. TATCCTTTCGTAAGACACTTTGGATGGGTTA [3d982] showed a fraction ligated of 0.371. With TATCCTTTCGTAAGACACTTTGGATGGGTTG [3d983] the fraction ligated was 0.766. With TATCCTTTCGTAAGACACTTTGGATGGGTTGA [2d91] the fraction ligated was 0.786. In the case of TATCCTTTCGTAAGACACTTTGGATGGTTGA [3d981], the fraction ligated is reported as 0.0298. TATCCTTTCGTAAGACACTTTGGTGGGTTGA [3d979] gave a fraction ligated of 0.0729. TATCCTTTCGTAAGACATTTGGATGGGTTGA [3d976] gave a fraction ligated of 0.787. With TATCCTTTCGTAAGACCTTTGGATGGGTTGA [3d975] the fraction ligated was 0.771. In the case of TATCCTTTCGTAAGCACTTTGGATGGGTTGA [3d973], the fraction ligated is reported as 0.77. Work on TATCCTTTCGTAGACACTTTGGATGGGTTGA [3d971] yielded a fraction ligated of 0.766. Sequence TATCCTTTCTAAGACACTTTGGATGGGTTGA [3d969] has a fraction ligated of 0.796. TATCCTTTGTAAGACACTTTGGATGGGTTGA [3d968] was tested, and the fraction ligated was 0.772. In the case of TATCTGTCGTAAGACACTTTGGATGGGTTGA [3d739], the fraction ligated is reported as 0.775. TATCTTGCGTAAGACACTTTGGATGGGTTGA [3d741] was tested, and the fraction ligated was 0.828. Sequence TATCTTGTCGAAGACACTTTGGATGGGTTGA [3d744] has a fraction ligated of 0.755. TATCTTGTCGTAAACACTTTGGATGGGTTGA [3d746] showed a fraction ligated of 0.76. TATCTTGTCGTAAGAACTTTGGATGGGTTGA [3d748] showed a fraction ligated of 0.841. TATCTTGTCGTAAGACACTTGGATGGGTTGA [3d751] was tested, and the fraction ligated was 0.776. Sequence TATCTTGTCGTAAGACACTTTGATGGGTTGA [3d752] has a fraction ligated of 0.763. For TATCTTGTCGTAAGACACTTTGGAGGGTTGA [3d754], the fraction ligated was 0.0612. With TATCTTGTCGTAAGACACTTTGGATGGGTTA [3d756] the fraction ligated was 0.722. TATCTTGTCGTAAGACACTTTGGATGGGTTG [3d757] showed a fraction ligated of 0.779. TATCTTGTCGTAAGACACTTTGGATGGGTTGA [2d69] showed a fraction ligated of 0.791. With TATCTTGTCGTAAGACACTTTGGATGGTTGA [3d755] the fraction ligated was 0.155. For TATCTTGTCGTAAGACACTTTGGTGGGTTGA [3d753], the fraction ligated was 0.563. Sequence TATCTTGTCGTAAGACATTTGGATGGGTTGA [3d750] has a fraction ligated of 0.806. Sequence TATCTTGTCGTAAGACCTTTGGATGGGTTGA [3d749] has a fraction ligated of 0.757. TATCTTGTCGTAAGCACTTTGGATGGGTTGA [3d747] gave a fraction ligated of 0.743. TATCTTGTCGTAGACACTTTGGATGGGTTGA [3d745] gave a fraction ligated of 0.819. Work on TATCTTGTCTAAGACACTTTGGATGGGTTGA [3d743] yielded a fraction ligated of 0.742. TATCTTGTGTAAGACACTTTGGATGGGTTGA [3d742] gave a fraction ligated of 0.867. With TATCTTTCGTAAGACACTTTGGATGGGTTGA [3d740] the fraction ligated was 0.837. TATTTGTCGTAAGACACTTTGGATGGGTTGA [3d738] showed a fraction ligated of 0.762. In the case of TCACTGTCGTAAGACACTTTGGATGGGTTGA [3d5], the fraction ligated is reported as 0.621. TCACTTGCGTAAGACACTTTGGATGGGTTGA [3d7] gave a fraction ligated of 0.493. TCACTTGTCGAAGACACTTTGGATGGGTTGA [3d10] gave a fraction ligated of 0.748. TCACTTGTCGTAAACACTTTGGATGGGTTGA [3d12] showed a fraction ligated of 0.444. In the case of TCACTTGTCGTAAGAACTTTGGATGGGTTGA [3d14], the fraction ligated is reported as 0.399. In the case of TCACTTGTCGTAAGACACTTGGATGGGTTGA [3d17], the fraction ligated is reported as 0.419. TCACTTGTCGTAAGACACTTTGATGGGTTGA [3d18] was tested, and the fraction ligated was 0.183. TCACTTGTCGTAAGACACTTTGGAGGGTTGA [3d20] gave a fraction ligated of 0.333. For TCACTTGTCGTAAGACACTTTGGATGGGTTA [3d22], the fraction ligated was 0.427. Sequence TCACTTGTCGTAAGACACTTTGGATGGGTTG [3d23] has a fraction ligated of 0.797. For TCACTTGTCGTAAGACACTTTGGATGGGTTGA [2d1], the fraction ligated was 0.796. Work on TCACTTGTCGTAAGACACTTTGGATGGTTGA [3d21] yielded a fraction ligated of 0.709. TCACTTGTCGTAAGACACTTTGGTGGGTTGA [3d19] showed a fraction ligated of 0.0723. TCACTTGTCGTAAGACATTTGGATGGGTTGA [3d16] showed a fraction ligated of 0.782. TCACTTGTCGTAAGACCTTTGGATGGGTTGA [3d15] was tested, and the fraction ligated was 0.769. TCACTTGTCGTAAGCACTTTGGATGGGTTGA [3d13] gave a fraction ligated of 0.608. With TCACTTGTCGTAGACACTTTGGATGGGTTGA [3d11] the fraction ligated was 0.765. For TCACTTGTCTAAGACACTTTGGATGGGTTGA [3d9], the fraction ligated was 0.768. With TCACTTGTGTAAGACACTTTGGATGGGTTGA [3d8] the fraction ligated was 0.662. Sequence TCACTTTCGTAAGACACTTTGGATGGGTTGA [3d6] has a fraction ligated of 0.145. TCATTGTCGTAAGACACTTTGGATGGGTTGA [3d4] showed a fraction ligated of 0.164. TCCTTGTCGTAAGACACTTTGGATGGGTTGA [3d3] was tested, and the fraction ligated was 0.687. In the case of TTACTGTCGTAAGACACTTTGGATGGGTTGA [3d279], the fraction ligated is reported as 0.226. Sequence TTACTTGCGTAAGACACTTTGGATGGGTTGA [3d281] has a fraction ligated of 0.0196. TTACTTGTCGAAGACACTTTGGATGGGTTGA [3d284] was tested, and the fraction ligated was 0.131. In the case of TTACTTGTCGTAAACACTTTGGATGGGTTGA [3d286], the fraction ligated is reported as 0.00498. TTACTTGTCGTAAGAACTTTGGATGGGTTGA [3d288] showed a fraction ligated of 0.0626. TTACTTGTCGTAAGACACTTGGATGGGTTGA [3d291] showed a fraction ligated of 0.305. TTACTTGTCGTAAGACACTTTGATGGGTTGA [3d292] showed a fraction ligated of 0.0869. TTACTTGTCGTAAGACACTTTGGAGGGTTGA [3d294] gave a fraction ligated of 0.125. TTACTTGTCGTAAGACACTTTGGATGGGTTA [3d296] showed a fraction ligated of 0.0531. For TTACTTGTCGTAAGACACTTTGGATGGGTTG [3d297], the fraction ligated was 0.299. For TTACTTGTCGTAAGACACTTTGGATGGGTTGA [2d25], the fraction ligated was 0.419. TTACTTGTCGTAAGACACTTTGGATGGTTGA [3d295] showed a fraction ligated of 0.323. Work on TTACTTGTCGTAAGACACTTTGGTGGGTTGA [3d293] yielded a fraction ligated of 0.031. TTACTTGTCGTAAGACATTTGGATGGGTTGA [3d290] was tested, and the fraction ligated was 0.517. Work on TTACTTGTCGTAAGACCTTTGGATGGGTTGA [3d289] yielded a fraction ligated of 0.229. In the case of TTACTTGTCGTAAGCACTTTGGATGGGTTGA [3d287], the fraction ligated is reported as 0.00788. TTACTTGTCGTAGACACTTTGGATGGGTTGA [3d285] gave a fraction ligated of 0.00592. For TTACTTGTCTAAGACACTTTGGATGGGTTGA [3d283], the fraction ligated was 0.147. With TTACTTGTGTAAGACACTTTGGATGGGTTGA [3d282] the fraction ligated was 0.207. For TTACTTTCGTAAGACACTTTGGATGGGTTGA [3d280], the fraction ligated was 0.0128. TTATTGTCGTAAGACACTTTGGATGGGTTGA [3d278] gave a fraction ligated of 0.076. For TTCACGTCGTAAGACACTTTGGATGGGTTGA [3d336], the fraction ligated was 0.658. TTCACTGCGTAAGACACTTTGGATGGGTTGA [3d338] was tested, and the fraction ligated was 0.782. TTCACTGTCGAAGACACTTTGGATGGGTTGA [3d341] was tested, and the fraction ligated was 0.77. TTCACTGTCGTAAACACTTTGGATGGGTTGA [3d343] was tested, and the fraction ligated was 0.8. In the case of TTCACTGTCGTAAGAACTTTGGATGGGTTGA [3d345], the fraction ligated is reported as 0.788. TTCACTGTCGTAAGACACTTGGATGGGTTGA [3d348] showed a fraction ligated of 0.762. Sequence TTCACTGTCGTAAGACACTTTGATGGGTTGA [3d349] has a fraction ligated of 0.653. For TTCACTGTCGTAAGACACTTTGGAGGGTTGA [3d351], the fraction ligated was 0.327. With TTCACTGTCGTAAGACACTTTGGATGGGTTA [3d353] the fraction ligated was 0.195. In the case of TTCACTGTCGTAAGACACTTTGGATGGGTTG [3d354], the fraction ligated is reported as 0.726.
